The text below walks through data of patent US20220112270.

Data set [1] deals with another recombinant AAT (R&D systems) (UniProt P01009).
Data set [2] concerns mouse AAT in mouse plasma.
The target of data set [3] is plasma-derived human alpha 1-antitrypsin (AAT) (UniProt P01009).
Data set [4] has as its system recombinant human alpha 1-antitrypsin (AAT) derived from recombinant CHO cells.

On to trypsin, for which the “trypsin activity (fluorogenic peptide substrate)” value in data set [1] is “drastically reduced trypsin activity in a similar manner as ... another recombinant AAT (R&D systems)”; in data set [2], “drastically reduced trypsin activity in a similar manner as ... mouse plasma diluted from a sample that contained about 1.2 g/L mouse AAT”; in data set [3], “drastically reduced trypsin activity in a similar manner as a plasma-derived AAT (Prolastin)”; in data set [4], “At a concentration of 5 ng/ml, the recombinant AAT described and obtained by the methods presented herein (ExcellGene) drastically reduced trypsin activity”.
